Entries after “also recorded” stand apart in the source; their conditions may differ.
Key:
Type in all cases: biochemical
[1] = target: T1, bovine trypsin (Bos taurus, UniProt P00760); assay: Trypsin assay (spectrophotometric, N-Benzoyl-L-arginine p-nitroanilide substrate); conditions: for Inhibitory Activity Trypsin: inhibitor/protease ratio between about 10/1 and 50/1
T1 sequence (P00760 24-246): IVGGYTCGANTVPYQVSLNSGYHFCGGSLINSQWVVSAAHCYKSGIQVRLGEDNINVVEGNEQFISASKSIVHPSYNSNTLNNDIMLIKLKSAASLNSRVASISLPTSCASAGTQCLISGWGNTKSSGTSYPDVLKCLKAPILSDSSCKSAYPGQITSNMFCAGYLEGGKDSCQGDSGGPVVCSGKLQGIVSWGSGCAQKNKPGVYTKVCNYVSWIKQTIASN
Experimental: (§1) The inhibitory activity of the polypeptides of the present invention can be easily assayed using in vitro assays. In these types of spectrophotometric assays the activity of the serine protease is measured toward an appropriate p-nitroanilide substrate in the presence and absence of the peptide inhibitor. The enzyme catalyzed hydrolysis of the peptide p-nitroanilide substrate produces p-nitroanaline which results in an increase in absorbance which is monitored in the range of 405 to 410 nm. The rate of increase in absorbance is a measure of the enzymatic activity and the decrease in this rate relative to a suitable control is used to ascertain inhibition. The general assay procedure and details of the particular assays employed in the examples are provided in the Appendix following the examples. It is also possible to test the polypeptides in a functionally oriented assay that emulates in vivo conditions. Such an inhibition assay for elastase is also described in the Appendix.
(§2) Generalized Protocol Spectrophotometric Assays:
(§3) (1) Pipette 100 μl of enzyme solution into a disposable polystyrene cuvette (1 cm optical path length).
(§4) (2) Add (1900-X) μl of bufferto the cuvette, where X is the volume of test solution in microliters that is added in the next step.
(§5) Add X μl of test solution to the cuvette, where X ranges from 0 μl for the control to a maximum of about 500 μl. Incubate the solution for a period of 1 to 5 minutes at ambient temperature.
(§6) (4) Add 100 μl of substrate solution to the cuvette. Mix the contents by covering the cuvette with a piece of paraffin film and repeatedly inverting for a period of 5 to 15 seconds.
(§7) (5) Record the change in absorbance for about 5 minutes at either 405 or 410 nm, depending on the assay, with a spectrophotometer equipped with a suitable recording device.
(§8) The percent inhibition is calculated from the formula [formula] where (ΔA/min) is the initial rate of absorbance change.
(§9) (7) For more accurate quantitative determinations temperature control of the cuvette holders and the reagent solutions can be instituted.
(§10) (8) The test solution can be crude oxidized peptide prepared as described above, fractions from a chromatographic separation or purified polypeptides.
(A) Buffer Solution - Triethanolamine buffer consisting of 200 mM triethanolamine, 20 mM CaCl2, pH 7.8
(B) Substrate solution - Dissolve 50 mg of N-Benzoyl-L-arginine p-nitroanilide in 50 ml of water. Sonicate for 5 to 10 minutes to completely dissolve the solid material.
(C) Enzyme solution - Dissolve 1 mg of bovine trypsin in 10 ml of 0.001N HCl stored on ice during the assay.
(§11) (D) Test Solution - See general protocol, number 8.
(§12) Procedure: Use the above solutions in the general protocol described above.

[2] = target: T2, Human Sputum Elastase (Homo sapiens, UniProt P08246); assay: Elastase assay (spectrophotometric, p-nitroanilide substrate); conditions: for Inhibitory Activity Elastase: inhibitor/protease ratio between about 10/1 and 50/1; for inhibition of human elastase (in words): text discussion of Table III
T2 construct: Human Sputum Elastase, product No. SE-563 EPC, Inc., Pacific, Mo; USA, Lot 85701; purchased EPC, Inc., Pacific, Mo; USA SE-563; host or cells: human sputum
T2 sequence (P08246 30-267): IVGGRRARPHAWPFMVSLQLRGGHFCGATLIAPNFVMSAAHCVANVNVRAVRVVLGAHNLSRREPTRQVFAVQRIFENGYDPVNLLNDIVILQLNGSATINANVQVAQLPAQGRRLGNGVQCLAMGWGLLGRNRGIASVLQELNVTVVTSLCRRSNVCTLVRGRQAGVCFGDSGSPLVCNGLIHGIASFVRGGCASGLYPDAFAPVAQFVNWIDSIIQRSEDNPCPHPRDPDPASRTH
Experimental: as §1, §2, §3, §4, §5, §6, §7, §8, §9, §10
(A) Buffer Solution - Tris-NaCl buffer consisting of 0.1M Tris-HCl pH 7.5 at 25° C. containing 0.5M NaCl and 0.01% (w/v) NaNs.
(B) Substrate Solution - Dissolve 45.5 mg of N-succinyl-L-alanyl-L-alanyl-L-alanine p-nitroanilide in 1 ml of 1-methyl-2-pyrrolidinone. Add 32 ml of Tris-NaCl buffer.
(C) Enzyme Solution - Human Sputum Elastase, product No. SE-563 EPC, Inc., Pacific, Mo. USA, Lot 85701. Dissolve 1 mg in 1 ml of Tris-NaCl buffer. Store on ice or at 4° C.
as §11, §12
(1) Buffer Solution - Tris-NaCl buffer -see Method 1.
(2) Substrate Solution - Dissolve 50 mg of 3-carbomethoxypropionyl-L-alanyl-L-alanyl-L-[…]-L-valine p-nitroanilidein 1 ml of 1-methyl-2-pyrrolidinone. Add 32 ml of Tris-NaCl buffer.
(3) Enzyme Solution - Human sputum elastase, product No. SE-563, EPC, inc. Pacific, Mo. USA, Lot 85071. Prepare a sample at a concentration of 0.01 mg per ml of Tris-NaCl buffer. Store on ice.
(4) Test Solution - general protocol, number 8.
Procedure: Use the above solutions in the general protocol.
(1) Porcine pancreatic elastase may be substituted for human elastase when it is desired to test for an inhibitor of the former.
(2) The activity of an elastase preparation can be calculated as [formula]
(3) The Tris-NaCl buffer also can be pH 8.0 with 0.03% sodium azide. Results should be compared at a single pH.

[3] = target: T3, Human Sputum Cathepsin G (Homo sapiens, UniProt P08311); assay: Cathepsin G assay (spectrophotometric, p-nitroanilide substrate); conditions: for Inhibitory Activity Cathepsin G: inhibitor/protease ratio between about 10/1 and 50/1
T3 construct: Human Sputum Cathepsin G (Product No. SG-45, EPC, Inc., Pacific, Mo.); purchased EPC, Inc., Pacific, Mo; SG-45; host or cells: human sputum
T3 sequence (P08311 21-255): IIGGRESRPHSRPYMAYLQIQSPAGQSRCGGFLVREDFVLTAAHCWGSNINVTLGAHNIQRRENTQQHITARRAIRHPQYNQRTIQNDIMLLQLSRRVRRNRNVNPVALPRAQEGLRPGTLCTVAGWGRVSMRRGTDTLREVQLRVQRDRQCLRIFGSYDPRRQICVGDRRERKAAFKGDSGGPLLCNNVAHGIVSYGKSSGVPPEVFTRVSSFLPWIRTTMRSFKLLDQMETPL
Experimental: as §1, §2, §3, §4, §5, §6, §7, §8, §9, §10
(A) Buffer Solution - Tris-NaCl buffer consisting of 0.1M Tris-HCl, pH 8.0 containing 0.5M NaCl and 0.03% sodium azide.
(B) Substrate solution - Dissolve 50 mg of N-succinyl-L-alanyl-L-alanyl-L-prolyl-L-phenylalanine p-nitroanilide in 1 ml of 1-methyl-2-pyrrolidinone and dilute to 50 ml with Tris-NaCl buffer.
(C) Enzyme Solution - Human Sputum Cathepsin G (Product No. SG-45, EPC, Inc., Pacific, Mo.). Dissolve 1 mg of protein per 1 ml of Tris-NaCl buffer. Store on ice or at 4° C.
(D) Test Solutions - See the general protocol, number 8.
Procedure: Use the above solution in the general protocol described above. […]

[4] = target: bovine chymotrypsin (Bos taurus, UniProt P00766); assay: Chymotrypsin assay (spectrophotometric, p-nitroanilide substrate); conditions: for Inhibitory Activity Chymotrypsin: inhibitor/protease ratio between about 10/1 and 50/1
Experimental: as §1, §2, §3, §4, §5, §6, §7, §8, §9, §10
(A) Buffer solution - triethanolamine buffer- See trypsin assay.
(B) Substrate Solution - Dissolve 25 mg of 3-carbomethoxypropionyl-L-arginyl-L-prolyl-L-tyrosine p-nitroanilide (Product No. S-2586, KabiVitrum AB, Stockholm, Sweden) in 23.6 ml of water
(C) Enzyme solution - Dissolve 1 mg of bovine chymotrypsin in 4 ml of 0.001N HCl. Prepare the final dilution by combining 0.1 ml of the stock chymotrypsin solution and 10 ml of 0.001N HCl. Store on ice or at 4° C.
Procedure: Use the above solutions in the general protocol
(2) See note 1 of the cathepsin G assay.
(3) 0.1M Tris-HCl, pH 7.8, 20 mM CaCl2, 0.05% triton X-100 can be substituted for the triethanolamine buffer.

Substance	Inhibitory Activity Trypsin [1]	Inhibitory Activity Elastase [2]	inhibition of human elastase (in words) [2]	Inhibitory Activity Cathepsin G [3]	Inhibitory Activity Chymotrypsin [4]	inhibition of trypsin (in words) ([1]; text discussion of Table III)	inhibition of cathepsin G (in words) ([3]; text discussion of Table III)	inhibition of chymotrypsin (in words) ([4]; text discussion of Table III)
RVCPVALMKCKKDSDCLAECVCLEHGYCG (RVCPVALMKCKKDSDCLAECVCLEHGYCG) [Peptide 48]	- (Represents less than 10% inhibition)	+ (Represents between 10% and 50% inhibition)	continue to be inhibitors of human elastase	- (Represents less than 10% inhibition)	- (Represents less than 10% inhibition)			
RVPCVILMKLKKDSDCLAECVCLEHGYCG (RVPCVILMKLKKDSDCLAECVCLEHGYCG) [Peptide 50]	- (Represents less than 10% inhibition)	- (Represents less than 10% inhibition)	only marginal activity	- (Represents less than 10% inhibition)	- (Represents less than 10% inhibition)			
RVCPGILMKCKKDSDCLAECVCLEHGYCG (RVCPGILMKCKKDSDCLAECVCLEHGYCG) [Peptide 51]	- (Represents less than 10% inhibition)	++ (Represents greater than 50% inhibition)	is a human elastase inhibitor; also recorded: less effective inhibitor of elastase than peptides 1 or 8	- (Represents less than 10% inhibition)	- (Represents less than 10% inhibition)			
RVCPIILMKCKKDSDCLAECVCLEHGYCG (RVCPIILMKCKKDSDCLAECVCLEHGYCG) [Peptide 1]	- (Represents less than 10% inhibition)	++ (Represents greater than 50% inhibition)		- (Represents less than 10% inhibition)	- (Represents less than 10% inhibition)			
RVCPVILLKCKKDSDCLAECVCLEHGYCG (RVCPVILLKCKKDSDCLAECVCLEHGYCG) [Peptide 45]	- (Represents less than 10% inhibition)	++ (Represents greater than 50% inhibition)	continue to be inhibitors of human elastase	- (Represents less than 10% inhibition)	- (Represents less than 10% inhibition)			
RVPCVALMKCKKDSDCLAECVCLEHGYCG (RVPCVALMKCKKDSDCLAECVCLEHGYCG) [Peptide 49]	- (Represents less than 10% inhibition)	+ (Represents between 10% and 50% inhibition)	continue to be inhibitors of human elastase; also recorded: only marginal activity	- (Represents less than 10% inhibition)	- (Represents less than 10% inhibition)			
RVCPFILMKCKKDSDCLAECVCLEHGYCG (RVCPFILMKCKKDSDCLAECVCLEHGYCG) [Peptide 15]	++ (Represents greater than 50% inhibition)	++ (Represents greater than 50% inhibition)	inhibited	++ (Represents greater than 50% inhibition)	++ (Represents greater than 50% inhibition)	inhibited	Inhibition of chymotrypsin and cathepsin G was observed	Inhibition of chymotrypsin and cathepsin G was observed
RVCPLILMKCKKDSDCLAECVCLEHGYCG (RVCPLILMKCKKDSDCLAECVCLEHGYCG) [Peptide 29]	++ (Represents greater than 50% inhibition)	++ (Represents greater than 50% inhibition)	continue to be inhibitors of human elastase	+ (Represents between 10% and 50% inhibition)	++ (Represents greater than 50% inhibition)			
RVCPVSLMKCKKDSDCLAECVCLEHGYCG (RVCPVSLMKCKKDSDCLAECVCLEHGYCG) [Peptide 44]	- (Represents less than 10% inhibition)	++ (Represents greater than 50% inhibition)		- (Represents less than 10% inhibition)	- (Represents less than 10% inhibition)			
